The target of data set [1] is N-terminally Strep-tagII tagged wild-type QstR (Vibrio cholerae). Nature of the data set: SEC; analytical SEC, Superdex 200 10/300 GL; 100 mM Tris-HCl pH 8.0, 300 mM NaCl, 1 mM EDTA; 0.5 ml/min; size estimated from a standard curve of protein standards.
Data set [2] concerns HupA, HU-alpha (9 kDa) (Vibrio cholerae A1552 (A1552-TntfoX)). Nature of the data set: DNA affinity pull-down, LC-MS/MS.
The test system of data set [3] is NdpA nucleoid-associated protein (38 kDa) (Vibrio cholerae A1552 (A1552-TntfoX)). Nature of the data set: DNA affinity pull-down, LC-MS/MS.
The test system of data set [4] is VCA0767 (TetR family transcriptional regulator, 29 kDa) (Vibrio cholerae A1552 (A1552-TntfoX)). Nature of the data set: DNA affinity pull-down, LC-MS/MS.
In data set [5] the test system is H-NS (15 kDa) (Vibrio cholerae A1552 (A1552-TntfoX)). As to the kind of experiment: DNA affinity pull-down, LC-MS/MS.

The term stoichiometry N denotes a count of units in the complex or per binding partner. Regarding “N-terminally Strep-tagII tagged wild-type QstR (natural protein)”, the stoichiometry N in data set [1] is 2.

As for comEA pull-down probe, the binding signal (total spectra) in data set [2] worked out at 8; in data set [3], 8; in data set [4], 5; in data set [5] it was 35.

For the substance gyrA pull-down probe, the binding signal (total spectra) in data set [2] is 8; in data set [3], 6; in data set [4], 0; in data set [5] it was 16.

Turning to qstR pull-down probe, the binding signal (total spectra) in data set [2] was found to be 26; in data set [3], 10; in data set [4], 0; in data set [5], 185.

(Values after paper PMC6237807.)
